Positions count from the first letter of the chain named. Names and notes keep the numbering of the source. Peptide text beside a SMILES is read from it. * marks the point of attachment. Bz = O=C(c1ccccc1)*
B1: carboxypeptidase Y (CPD-Y) variant N51Q (Asn51 replaced with glutamine) (Saccharomyces cerevisiae S288C; N162Q) (protein)
chain: KIKDPKILGIDPNVTQYTGYLDVEDEDKHFFFWTFESRNDPAKDPVILWLQGGPGCSSLTGLFFELGPSSIGPDLKPIGNPYSWNSNATVIFLDQPVNVGFSYSGSSGVSNTVAAGKDVYNFLELFFDQFPEYVNKGQDFHIAGESYAGHYIPVFASEILSHKDRNFNLTSVLIGNGLTDPLTQYNYYEPMACGEGGEPSVLPSEECSAMEDSLERCLGLIESCYDSQSVWSCVPATIYCNNAQLAPYQRTGRNVYDIRKDCEGGNLCYPTLQDIDDYLNQDYVKEAVGAEVDHYESCNFDINRNFLFAGDWMKPYHTAVTDLLNQDLPILVYAGDKDFICNWLGNKAWTDVLPWKYDEEFASQKVRNWTASITDEVAGEVKSYKHFTYLRVFNGGHMVPFDVPENALSMVNEWIHGGFSL
notes: made in house; host or cells: S. cerevisiae W2579 (secreted)
B2: carboxypeptidase Y (CPD-Y) variant N51S (Asn51 replaced with serine) (Saccharomyces cerevisiae S288C; N162S) (protein)
chain: B1 chain with Q51S
notes: as for B1

Columns and labels:
[1] = target: T1, carboxypeptidase Y (CPD-Y) variant N51Q (Asn51 replaced with glutamine) (Saccharomyces cerevisiae, UniProt P00729, N162Q); experiment: Aminolysis; KN(app) of nucleophile; type: biochemical, yeast; details: Table V; amino acid nucleophile, FA-Ala-OBzl as substrate, pH 7.5
T1 construct: made in house; host or cells: S. cerevisiae W2579 (secreted)
T1 sequence (P00729 112-532 N162Q): B1 chain
Method: (§1) Aminolysis reactions were carried out in the following way. The nucleophile was dissolved in 50 mM Hepes, 5 mM EDTA and pH was adjusted to 7.5. Five (5) μl of substrate (8 mM FA-Ala-OBzl in methanol) was added to 190 μl nucleophile solution followed by 5 μl enzyme, resulting in a substrate concentration of 0.2 mM. For reactions carried out at pH 9.5, Hepes was replaced with Ches. During the reaction, 20 μl aliquots were removed from the reaction mixture and added to 50 μl 1% trifluoroacetic acid to quench the reaction. The reactant composition was determined by HPLC using a Waters HPLC equipped with a C-18 Waters Novapac 4μ reverse phase column and various gradients of acetonitrile in 0.1% trifluoroacetic acid. The separation was monitored at 302 nm allowing the direct quantification of the products from the integrated peak areas. The composition of the reaction mixture was determined at least twice during the reaction, the first time when 20-50% (preferably 35%) of the ester substrate had been consumed in the reaction and the second time when 50-90% (preferably 80%) of the substrate had been consumed. The products were collected and identified by amino acid analysis after acid hydrolysis using a Pharmacia Alpha Plus analyzer.
(§2) Further identification was obtained by co-chromatography of authentic standard compounds. The fraction of aminolysis (fa) was expressed as the ratio between the formed aminolysis product and the sum of all products being formed, i.e., unconsumed substrate was disregarded in the calculations. The KN(app), representing the nucleophile concentration at which fa is half the maximum value (a measure for the dissociation constant of the nucleophile), and famax (the highest possible fa obtained at saturation of the enzyme with nucleophile) were determined by fitting the values of fa obtained at a minimum of seven concentrations of nucleophile to a saturation. The value of fa obtained at the highest possible nucleophile concentration is designated fasat.
(§3) Aminolysis reactions were carried out in the following way. The nucleophile was dissolved in 50 mM HEPES, 5 mM EDTA and pH was adjusted to 7.5, 5 μl substrate (8 mM FA-Ala-OBzl or FA-Ala-Xaa-OH in methanol) was added to 190 μl nucleophile solution followed by 5 μl enzyme diluted in buffer to the appropriate concentration, resulting in a substrate concentration of 0.2 mM. During the reaction, 20 μl aliquots were removed from the reaction mixture and added to 50 μl 1% trifluoroacetic acid to quench the reaction. The reactant composition was determined by HPLC using a Waters HPLC equipped with a C-18 Waters Novapac 4μ reverse phase column and various gradients of acetonitrile in 0.1% trifluoroacetic acid. The separation was monitored at 302 nm allowing the direct quantification of the products from the integrated peak areas. The products were collected and identified by amino acid analysis after acid hydrolysis (Pharmacia Alpha Plus analyzer) and by co-chromatography of authentic standards. The fraction of aminolysis (fa) was expressed as the ratio between the formed aminolysis product and the sum of all products being formed, i.e. unconsumed substrate was disregarded in the calculations. The KN,app (a measure for the dissociation constant of the nucleophile) and famax (the highest possible fa obtained at saturation with nucleophile were determined by fitting the obtained fa values to the equation fa=famax /(1+KN,app /N).

[2] = target: T2, yeast carboxypeptidase Y (CPD-Y), wild type (SEQ ID NO:32) (Saccharomyces cerevisiae, UniProt P00729); experiment: Aminolysis of ester/peptide substrates; KN(app) of nucleophile; type: biochemical; details: for KN(app): Table III (unit as in Tables I, II), ester substrate; for KN,app (H-Gly-NH2 as nucleophile): substance of the line is the substrate (leaving group phenylalanine or L-β-phenyllactic acid), enzyme not named, taken as CPD-Y
T2 construct: purchased Carlbiotech, Copenhagen, Denmark
T2 sequence (P00729 112-532): B1 chain with Q51N
Method: as §1, §2, §3

[3] = substrate: CC(C)[C@H](NC(=O)[C@H](Cc1ccccc1)NC(=O)C=Cc1ccco1)C(=O)O; experiment: Hydrolysis of FA-Phe-Val-OH; type: biochemical, yeast; details: other: hydrolysis of FA-Phe-Val-OH

| Molecule | KN(app) ([2]; amino acid nucleophile) [mM] | estimated CPD-Y activity relative to wild type transformants (fold of wild type) (CBZ-Pro-Leu-OH) | estimated CPD-Y activity relative to wild type transformants (fold of wild type) (CBZ-Glu-Leu-OH) | estimated CPD-Y activity relative to wild type transformants (fold of wild type) (CBZ-Gly-Leu-OH) | estimated CPD-Y activity relative to wild type transformants (fold of wild type) (CBZ-Lys-Leu-OH) | estimated CPD-Y activity relative to wild type transformants (fold of wild type) (CBZ-His-Leu-OH) | estimated CPD-Y activity relative to wild type transformants (fold of wild type) (CBZ-Trp-Leu-OH) | estimated CPD-Y activity relative to wild type transformants (fold of wild type) (CBZ-Ser-Leu-OH) | estimated CPD-Y activity relative to wild type transformants (fold of wild type) (CBZ-Phe-Leu-OH) | further results |
| --- | --- | --- | --- | --- | --- | --- | --- | --- | --- | --- |
| C[C@H](N)C(=O)O [H--Ala--OH, H-Ala-OH] | 83 ± 7 | – | – | – | – | – | – | – | – | Kn,app [1]: 250 ± 15 mM; Kn,app ([2]; Table V, amino acid nucleophile, FA-Ala-OBzl as substrate, pH 7.5): 83 ± 7 mM |
| NC(=O)CC[C@H](N)C(=O)O [H--Gln--OH, H-Gln-OH] | 150 ± 8 | – | – | – | – | – | – | – | – | – |
| NCC(=O)O [H--Gly--OH, H-Gly-OH] | 1500 ± 50 | – | – | – | – | – | – | – | – | – |
| N[C@@H](Cc1c[nH]cn1)C(=O)O [H--His--OH, H-His-OH] | 87 ± 9 | – | – | – | – | – | – | – | – | – |
| NCCCC[C@H](N)C(=O)O [H--Lys--OH, H-Lys-OH] | 190 ± 30 | – | – | – | – | – | – | – | – | – |
| N[C@@H](Cc1ccccc1)C(=O)O [H--Phe--OH, H-Phe-OH] | 9.5 ± 1 | – | – | – | – | – | – | – | – | Kn,app [1]: 29 ± 1 mM |
| N[C@@H](CO)C(=O)O [H--Ser--OH, H-Ser-OH] | 310 ± 20 | – | – | – | – | – | – | – | – | – |
| O=C(CNC(=O)c1ccccc1)N[C@@H](Cc1ccccc1)C(=O)O [Hippuryl-L-Phe-OH] (Bz-Gly-Phe-OH) | – | – | – | – | – | – | – | – | – | KN,app (H-Gly-NH2 as nucleophile) [2]: 0.63±0.06 |
| O=C(CNC(=O)c1ccccc1)O[C@@H](Cc1ccccc1)C(=O)O [Hippuryl-L-β-Phenyllactic acid] | – | – | – | – | – | – | – | – | – | KN,app (H-Gly-NH2 as nucleophile) [2]: 0.47±0.05 |
| carboxypeptidase Y mutant 178Ala/215Ser/216Arg (enzyme) | – | 0.6 | 1.4 | 1.1 | 4 | 1 | 1.1 | 1.3 | 1.2 | – |
| carboxypeptidase Y mutant 178Asn/215Ala/216Gly (enzyme) | – | 0.9 | 2 | 0.7 | 4.4 | 1.3 | 2 | 0.7 | 2.8 | – |
| carboxypeptidase Y mutant 178Cys (enzyme) | – | 0.3 | 1.1 | 0.9 | 6.9 | 1.7 | 1 | 0.5 | – | – |
| carboxypeptidase Y mutant 178Cys/215Thr/216Trp (enzyme) | – | 1.6 | 1.1 | 0.8 | 5.3 | 1.1 | 0.9 | 0.4 | 1 | – |
| carboxypeptidase Y mutant 178Gly/340Ile/341Cys (enzyme) | – | 0.5 | 0.8 | 0.3 | 4.6 | 0.8 | 0.5 | 0.3 | 0.8 | – |
| carboxypeptidase Y mutant 178His/215Pro/216Thr (enzyme) | – | 1.2 | 1 | 0.8 | 3.6 | 1.1 | 1.5 | 1.1 | 0.9 | – |
| carboxypeptidase Y mutant 178His/215Thr/216Phe (enzyme) | – | 1.2 | 1.2 | 0.8 | 3.1 | 1.1 | 1.7 | 1 | 0.9 | – |
| B1 | – | – | – | – | – | – | – | – | – | Km [3]: 85 µM; kcat [3]: 25 s⁻¹; kcat/Km [3]: 300000 M⁻¹ s⁻¹ |
| B2 | – | – | – | – | – | – | – | – | – | Km [3]: 170 µM; kcat [3]: 135 s⁻¹; kcat/Km [3]: 800000 M⁻¹ s⁻¹ |
